# Measurements reported in US10829757B2, “MUB motif is an inhibitor of E2-ubiquitin thioester formation” (Saint Louis University, priority 2016, dated 2020).
# No end group written: not given here.
# B1: AtMUB3 F77A (protein, UniProt Q9SW27 1-115, looked up, variant F77A)
# Membrane-anchored …: MPEEESIDIKFRLYDGSDIGPFRYSAASTVDFLKQRVVSDWPKGKTVVPKGINEVKLISSGKILENNKTVGQCKTPAGDIAGGVIVMHVVVQPSLAKSKTEKKVDKAPKAVICTC
# B2: HsMUB: human version of MUB, aka Ubl3, SEQ ID NO: 2 (protein, listed as Homo sapiens)
# chain: MSSNVPADMINLRLILVSGKTKEFLFSPNDSASDIAKHVYDNWPMDWEEEQVSSPNILRLIYQGRFLHGNVTLGALKLPFGKTTVMHLVARETLPEPNSQGQRNREKTGESNCCVIL
# Experiments:
# [1] = biological target: T1, AtUBC8 (Arabidopsis thaliana, UniProt P35131); assay: E2~Ub thioester formation assay (immunoblot), AtUBC8; format: biochemical; details: for inhibition of AtUBC8~Ub thioester formation: MUB protein 30 μM pre-incubated 15 min, 3 μM E2, immunoblot
# T1 construct: 6xHis; made in house; host or cells: E. coli Rosetta 2 (DE3) pLacI
# T1 sequence (P35131 whole entry): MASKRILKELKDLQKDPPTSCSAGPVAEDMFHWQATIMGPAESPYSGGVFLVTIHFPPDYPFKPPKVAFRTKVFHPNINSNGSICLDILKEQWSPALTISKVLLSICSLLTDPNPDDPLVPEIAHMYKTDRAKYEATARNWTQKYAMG
# Experimental: E2 Thioester Formation Assays.
# (§1) E2˜Ub thioester formation assays were performed at 25° C. using 0.25 μM E1, 3 μM E2, 12 μM Ub, and 50 mM HEPES, pH 8.0, initiated with addition of 1 mM Mg-ATP. When included, 30 μM AtMUB3 was pre-incubated for 15 min at 25° C. Reactions were terminated by the addition of non-reducing or reducing Laemmli buffer. Protein samples were visualized and analyzed as described, above, and quantified using Fuji Film Multi-Gauge software. Relative inhibition efficiency (RIE) was determined by comparing the inhibition efficiency of AtMUB3 mutants to wild type as follows; RIE=[1−(E2˜Ub with AtMUB3 mutant/E2)]/[1−(E2˜Ub with WT AtMUB3/E2)].
# Lap-Bar Peptide Inhibition Assay.
# Lap-Bar custom peptide ([…] SEQ ID NO: 1, Sigma-Aldrich and Peptide 2.0 Inc.), three scrambled peptides ([…] SEQ ID NO: 4, […] SEQ ID NO: 49, […] SEQ ID NO: 50, Peptide 2.0 Inc.) and amino acid controls were dissolved in 50 mM Tris-HCl, pH 7.5, 300 mM NaCl, and 10% Glycerol.
# [2] = biological target: T2, AtUBC8 Ser22Arg (Arabidopsis thaliana, UniProt P35131, S22R); assay: E2~Ub thioester formation assay, AtUBC8 Ser22Arg; format: biochemical; details: AtMUB3 30 μM, three minute reaction
# T2 construct: 6xHis (C); made in house; host or cells: E. coli Rosetta 2 (DE3) pLacI
# T2 sequence (P35131 whole entry S22R): as the sequence (P35131 whole entry) above, with S22R counted along it
# Experimental: as §1
# (§2) To assess whether MUB binding regulates E2 function, E2˜Ub thioester formation assays were performed on AtUBC8. […] AtUBC8-Ub peptide linkages, which could complicate the analysis, were observed by 10 minutes, so three minute reactions were used in subsequent assays. Ser22 on the so-called backside binding site (BBS) of AtUBC8 is distant from the active site Cys85, and was previously determined to interfere with MUB-induced E2 localization to the PM (Dowil et al., 2011). E2Ub formation on AtUBC8 Ser22Arg was unaffected by AtMUB3, supporting the requirement of a direct interaction for inhibition (FIG. 1C). Since MUBs interact specifically with Arabidopsis group VI E2s, two additional subfamily members, AtUBC10 and AtUBC28 were tested. […]
# [3] = biological target: T3, AtUBC10 (Arabidopsis thaliana, UniProt P35133); assay: E2~Ub thioester formation assay, AtUBC10; format: biochemical; details: group VI E2, AtMUB3 30 μM
# T3 construct: 6xHis (N); made in house; host or cells: E. coli Rosetta 2 (DE3) pLacI
# T3 sequence (P35133 whole entry): as the sequence (P35131 whole entry) above, with A41S, S46A, R131K, A132N, A136S, N140S counted along it
# Experimental: as §1, §2
# [4] = biological target: T4, AtUBC28 (Arabidopsis thaliana, UniProt Q94F47); assay: E2~Ub thioester formation assay, AtUBC28; format: biochemical; details: group VI E2, AtMUB3 30 μM
# T4 construct: 6xHis (N); made in house; host or cells: E. coli Rosetta 2 (DE3) pLacI
# T4 sequence (Q94F47 whole entry): as the sequence (P35131 whole entry) above, with A41S, E42D, I78V, A136S, N140S counted along it
# Experimental: as §1, §2
# [5] = biological target: T5, AtUBC4 (Arabidopsis thaliana, UniProt P42748); assay: E2~Ub thioester formation assay, AtUBC4; format: biochemical; details: group IV E2, AtMUB3 30 μM
# T5 construct: 6xHis (N); made in house; host or cells: E. coli Rosetta 2 (DE3) pLacI
# T5 sequence (P42748 1-187): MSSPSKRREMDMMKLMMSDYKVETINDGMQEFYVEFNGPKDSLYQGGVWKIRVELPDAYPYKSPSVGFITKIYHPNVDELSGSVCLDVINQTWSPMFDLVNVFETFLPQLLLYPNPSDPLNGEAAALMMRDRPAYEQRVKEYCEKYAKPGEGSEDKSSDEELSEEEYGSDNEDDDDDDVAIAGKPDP
# Experimental: as §1, §2
# [6] = biological target: T6, AtUBC36 (Arabidopsis thaliana, UniProt Q9FZ48); assay: E2~Ub thioester formation assay, AtUBC36; format: biochemical; details: group XV E2, AtMUB3 30 μM
# T6 construct: 6xHis (N); made in house; host or cells: E. coli Rosetta 2 (DE3) pLacI
# T6 sequence (Q9FZ48 1-153): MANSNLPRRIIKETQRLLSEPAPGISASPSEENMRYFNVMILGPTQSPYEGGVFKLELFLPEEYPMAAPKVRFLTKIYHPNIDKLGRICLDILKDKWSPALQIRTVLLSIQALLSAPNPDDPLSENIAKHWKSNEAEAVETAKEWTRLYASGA
# Experimental: as §1, §2
# [7] = biological target: T7, Ube2D3 (Homo sapiens, UniProt P61077); assay: E2~Ub thioester formation assay, Ube2D3; format: biochemical; details: immunoblot
# T7 construct: 6xHis (C); made in house; host or cells: E. coli Rosetta 2 (DE3) pLacI
# T7 sequence (P61077 whole entry): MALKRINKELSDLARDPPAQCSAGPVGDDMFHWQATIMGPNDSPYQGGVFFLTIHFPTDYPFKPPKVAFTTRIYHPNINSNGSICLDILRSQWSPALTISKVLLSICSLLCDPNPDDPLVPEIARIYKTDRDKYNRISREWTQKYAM
# Experimental: as §1
# To test whether the differences between plant and animal LBLs influence their activity, the inventors compared them in reciprocal inhibition experiments. […] Taken together, MUB inhibition of E2Ub formation is conserved and broadly relevant to organisms that use the ubiquitylation system.
# [8] = biological target: T1, AtUBC8; assay: Isothermal titration calorimetry; format: binding; details: ITC, 8 μM AtUBC8, 110 μM AtMUB3 titrant, 25 mM HEPES pH 7.5, 200 mM NaCl
# Experimental: FIG. 13. AtMUB binds AtUBC8 with submicromolar dissociation constant Kd as measured by isothermal titration calorimetry. Isothermal titration calorimetry (ITC) was performed on 8 μM AtUBC8 with 110 μM AtMUB3 as the titrant using a MicroCal iTC200 (GE). Proteins were purified as described for crystallization and dialyzed extensively against a buffer containing 25 mM HEPES, pH 7.5, 200 mM NaCl, 1 mM TCEP. Data was processed with MicroCal Origin 7 software, and normalized against the dialysis buffer's heat of dilution. This plot is representative of 3 independent experiments, which yielded similar results but were performed at different concentrations of NaCl.
# [9] = biological target: T1, AtUBC8; assay: GST pull-down assay with GST-AtUBC8; format: binding; details: immunoblot
# Experimental: (§3) GST-tagged AtUBC8 was induced as described above, and the soluble extract fraction was immobilized on GSH resin (Thermo Scientific) for 20 min, followed by three washes with sonication buffer. Equi-molar His-tagged AtMUB3, AtMUB3 mutants and Ub were incubated separately with AtUBC8 loaded GSH resin for 15 min, washed three times using sonication buffer, and boiled in Laemmli buffer. MUB recovery was determined by immunoblotting and chemiluminescent detection using Fujifilm LAS4000 imaging. For FLAG pull-down assay, His-tagged AtUBC8C85S—O-Ub was generated (Sakata et al., 2010). Flag-tagged AtMUB3 was immobilized on FLAG resin (Thermo Scientific) for 20 min, followed by three washes with sonication buffer. AtUBC8C85S—O-Ub protein or Ub were incubated separately with AtMUB3 loaded FLAG resin for 15 min, washed three times using sonication buffer, and boiled in Laemmli buffer.
# [10] = biological target: T8, AtUBC8C85S with Ub linked to the active site through an oxyester bond (Arabidopsis thaliana, UniProt P35131, C85S); assay: FLAG pull-down assay with FLAG-AtMUB3; format: binding; details: immunoblot
# T8 construct: His; made in house; host or cells: E. coli Rosetta 2 (DE3) pLacI
# T8 sequence (P35131 whole entry C85S): as the sequence (P35131 whole entry) above, with C85S counted along it
# Experimental: as §3
# [11] = biological target: T9, AtUBC8~Ub (Arabidopsis thaliana, UniProt P35131); assay: E2~Ub thioester discharge assay; format: biochemical; details: 30 μM MUB, 100 mM lysine
# T9 construct: 6xHis; made in house; host or cells: E. coli Rosetta 2 (DE3) pLacI
# T9 sequence (P35131 whole entry): as the sequence (P35131 whole entry) above
# Experimental: FIG. 11. […] AtUBC8˜Ub discharging assay is exposed to AtMUB3. The quantification is presented in line graph, top panel (+/−SEM and n=3 for all data points), while the immunoblot (IB) of triple parallel experiments is shown in bottom panel.
# AtUBC8 (3 μM) was charged by incubating with 0.25 μM E1, 50 mM HEPES, pH 8.0, 1 mM Mg-ATP and 12 μM K0Ub for 3 min. The E1 was inactivated for 90 seconds with 50×E1 stop buffer (BostonBiochem). Lysine (100 mM) was added to the reaction with or without 30 μM MUB to initiate Ub leaving from the E2 active site.
# [12] = biological target: T7, Ube2D3; assay: HTRF-FRET E2 activation assay; format: biochemical
# Experimental: FIG. 12. Ube2D3 Activation. Using HTRF-FRET, Ube2D3 activation was monitored with indicated concentrations of HsMUB to establish an inhibition curve. The initial velocity was linear over the first 10 minutes and is represented as percent E2 activated, with 100% velocity taken in the absence of MUB and 0% in the absence of ATP. Plot represents three independent assays+s.e.m., fit to the one-site binding equation. An additional three assays fit to the Hill equation with coefficient n produced nearly identical results with n1.
# HTRF-FRET E2 activation assays were conducted using reagents adapted from the E1/E2 Lite kit (LifeSensors, Malvern, Pa.). […] Assays were read kinetically using a BioTek Synergy 4 plate reader equipped with Excitation 340/30 nm, Emission1 495/10 nm, Emission2 520/25 nm bandpass filters, a 400 nm dichroic mirror, and a Xenon flash lamp set to read Terbium and Fluorescein emission with a 100 μs time delay and 200 μs data collection time. The corrected FRET ratio was calculated as described in the TR-FRET manual (Molecular Devices): [(Em520/Em490)−(P*Em490))/Em490]*10000, where P=Em520/Em490 with terbium only, a proportionality factor to correct for terbium donor contribution to acceptor emission. The linear slope of the first 10 minutes of the reaction was determined as the initial velocity. […]
molecule,measurement,setting,value
"AtMUB3: Arabidopsis thaliana Membrane-anchored Ubiquitin-fold protein 3, recombinant, His-tagged (VGQCKTPFGDIAGGVIVMHVV; also: His tag; listed as Arabidopsis thaliana)",inhibition of AtUBC8~Ub thioester formation,[1],strongly reduced
same,inhibition of E2~Ub formation on AtUBC8 Ser22Arg,[2],unaffected
same,inhibition of AtUBC10 activation,[3],strongly inhibited
same,inhibition of AtUBC28 activation,[4],strongly inhibited
same,inhibition of AtUBC4 activation,[5],unaffected
same,inhibition of AtUBC36 activation,[6],unaffected
same,inhibition of Ube2D3~Ub formation,[7],does not inhibit
same,dissociation constant Kd,[8],submicromolar
same,binding to GST-AtUBC8 in pull-down,[9],efficient bait
same,pull-down of AtUBC8C85S-O-Ub,[10],can pull-down
same,Ub discharge from AtUBC8~Ub,[11],increase Ub discharging
same,Ub discharge from AtUBC8~Ub,[11]; listed as MUB,slightly faster
"LKLPFGKT [minimal human LBL, human MUB Lap Bar Loop eight-residue peptide]",inhibition of AtUBC8~Ub formation by peptides,"[1]; peptide 5 mM, 3 μM AtUBC8",potent inhibitory activity
B1,inhibition of AtUBC8~Ub thioester formation,[1],strong loss of inhibition
B2,inhibition of AtUBC8~Ub thioester formation,[1],potent inhibition
same,inhibition of Ube2D3~Ub formation,[7],potent inhibition
same,maximal inhibition of Ube2D3 activation,[12],up to 70%
